Values joined by “and” are separate entries in the source; they are usually repeats but may differ in a detail not shown here. Equal entries are not always repeated.

What all share (experiment): SPR, kinetics, Fab over captured mutant
For orientation: Surface plasmon resonance follows binding to a sensor surface in real time, without labels.

One test deals with T1, shCD131 I424A (human, UniProt P32927 17-438).
T1 construct: C-terminal 6xHis; also called 1424A
T1 sequence: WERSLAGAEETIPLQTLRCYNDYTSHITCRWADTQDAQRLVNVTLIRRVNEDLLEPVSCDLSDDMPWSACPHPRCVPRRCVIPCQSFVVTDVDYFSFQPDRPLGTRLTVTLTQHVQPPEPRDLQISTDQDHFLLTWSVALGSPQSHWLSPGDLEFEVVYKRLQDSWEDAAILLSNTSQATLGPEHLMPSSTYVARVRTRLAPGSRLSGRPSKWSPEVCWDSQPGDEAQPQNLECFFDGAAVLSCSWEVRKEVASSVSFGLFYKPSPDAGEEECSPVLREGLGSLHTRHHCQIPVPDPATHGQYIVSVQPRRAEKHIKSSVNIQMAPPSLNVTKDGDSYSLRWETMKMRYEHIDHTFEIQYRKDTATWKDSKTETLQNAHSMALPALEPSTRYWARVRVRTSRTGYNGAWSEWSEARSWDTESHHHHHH

For the next test, the target named is T2, shCD131 Y421A (human, UniProt P32927 17-438).
T2 construct: C-terminal 6xHis
T2 sequence: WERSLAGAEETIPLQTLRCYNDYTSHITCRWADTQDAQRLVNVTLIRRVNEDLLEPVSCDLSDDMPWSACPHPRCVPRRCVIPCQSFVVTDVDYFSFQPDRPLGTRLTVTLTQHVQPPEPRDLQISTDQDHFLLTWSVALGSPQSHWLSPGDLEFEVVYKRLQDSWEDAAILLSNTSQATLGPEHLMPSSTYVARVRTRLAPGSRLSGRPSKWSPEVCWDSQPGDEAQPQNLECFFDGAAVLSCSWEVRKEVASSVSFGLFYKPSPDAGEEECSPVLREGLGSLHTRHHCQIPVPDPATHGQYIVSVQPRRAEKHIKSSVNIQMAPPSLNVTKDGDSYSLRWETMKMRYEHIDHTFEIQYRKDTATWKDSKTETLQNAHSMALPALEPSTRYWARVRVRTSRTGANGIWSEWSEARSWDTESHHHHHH

Another test addresses T3, shCD131 S41A (human, UniProt P32927 17-438).
T3 construct: C-terminal 6xHis
T3 sequence: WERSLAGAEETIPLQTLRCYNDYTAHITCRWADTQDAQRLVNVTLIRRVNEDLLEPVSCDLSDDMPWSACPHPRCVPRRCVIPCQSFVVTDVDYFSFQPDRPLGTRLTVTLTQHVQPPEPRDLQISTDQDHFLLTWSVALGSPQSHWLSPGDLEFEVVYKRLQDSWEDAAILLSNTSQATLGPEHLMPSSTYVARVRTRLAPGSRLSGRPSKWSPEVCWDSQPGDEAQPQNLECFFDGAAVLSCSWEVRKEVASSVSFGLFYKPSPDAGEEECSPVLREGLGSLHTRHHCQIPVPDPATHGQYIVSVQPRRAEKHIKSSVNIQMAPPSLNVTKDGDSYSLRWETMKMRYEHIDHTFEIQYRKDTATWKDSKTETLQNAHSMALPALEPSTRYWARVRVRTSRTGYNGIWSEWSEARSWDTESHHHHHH

For another test, the target named is T4, shCD131 K362A (human, UniProt P32927 17-438).
T4 construct: C-terminal 6xHis
T4 sequence: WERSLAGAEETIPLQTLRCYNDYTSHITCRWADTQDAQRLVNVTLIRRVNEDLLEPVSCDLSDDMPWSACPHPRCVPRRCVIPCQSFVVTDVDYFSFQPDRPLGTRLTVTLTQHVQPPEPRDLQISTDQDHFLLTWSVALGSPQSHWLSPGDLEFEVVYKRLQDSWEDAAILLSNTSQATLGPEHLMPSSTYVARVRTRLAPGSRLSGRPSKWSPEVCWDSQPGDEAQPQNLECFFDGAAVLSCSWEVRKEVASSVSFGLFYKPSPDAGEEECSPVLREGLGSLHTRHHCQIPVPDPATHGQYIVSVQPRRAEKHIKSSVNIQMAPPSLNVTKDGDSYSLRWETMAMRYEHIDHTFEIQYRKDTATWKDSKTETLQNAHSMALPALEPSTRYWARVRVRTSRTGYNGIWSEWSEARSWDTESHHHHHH

B1: 9A2 Fab (Fab, V domains shown)
VH: EVQLLESGGGLVQPGGSLRLSCAASGFTFSHYHMLWVRQAPGKGLEWVSSIRSSGGFTYYADSVKGRFTISRDNSKNTLYLQMNSLRAEDTAVYYCARFYDSFFDIWGQGTMVTVSS
VL: DIQMTQSPSSVSASVGDRVTITCRASQGISSWLAWYQQKPGKAPKLLIYAASSLQSGVPSRFSGSGSGTDFTLTISSLQPEDFATYYCQQANSFPITFGQGTRLEIKR
notes: also called recombinant Fab of 9A2
With B1, the Kd in the test with shCD131 I424A is 126 nM; with shCD131 Y421A, 167 nM; in the test with shCD131 S41A, 56 nM; with shCD131 K362A it was 64.8 nM and 65 nM.

One may read the Kd as the free concentration of one partner at which half of the binding sites on the other are occupied at equilibrium, for simple one-to-one binding. Low readings indicate tighter binding, high ones weaker binding.
